Results: paper PMC9023288, “The Burkholderia cenocepacia iron starvation σ factor, OrbS, possesses an on-board iron sensor” (Nucleic Acids Research, 2022)
Values joined by “and” are separate entries in the source; they are usually repeats but may differ in a detail not shown here. Equal values may be shown once.

What was measured:
[1] = target: His-tagged OrbS-CtetraA (OrbS with all four C-terminal cysteine residues replaced by alanine); assay: BLI
[2] = target: T1, E. coli core RNA polymerase (core RNAP, α2ββ'ω) (E. coli, UniProt P0A7Z4 1-329; P0A8V2 1-1342; P0A8T7 1-1407; P0A800 1-91); assay: BLI; details: both partners purified
T1 construct: RNA polymerase subunit alpha, E. coli; RNA polymerase subunit beta, E. coli; RNA polymerase subunit beta', E. coli; RNA polymerase subunit omega, E. coli; Commercial core enzyme (NEB); also called E. coli RNAP core enzyme; core E. coli RNAP; source: bought: NEB; copies: 2 + + +

Molecule: E. coli core RNA polymerase (core RNAP, α2ββ'ω) (from UniProt P0A7Z4 1-329; P0A8V2 1-1342; P0A8T7 1-1407; P0A800 1-91) (complex)
- Kd [1]: 20 nM and 160 nM
- kon [1]: 15000 M⁻¹ s⁻¹ and 9100 M⁻¹ s⁻¹

B1: His-tagged Burkholderia cenocepacia OrbS (iron starvation ECF σ factor) (natural protein, UniProt B4E986 1-222, looked up)
chain: MAMAEVLDRPAAAAANPFLGSYPDLPPRAAPRARRASEPRAQGALLDVLISHRAMLVNVARGFVGCASRAEDVVHDVFVKLVEFPNQDAVRQPVAYVTRMVRNASIDACRRQNLENVYHTEEDDGFDVPSPEPTPEAALMTRDTLRRVWAALDDLPARSRAAFEMVRLREETLQTAARALNVSQTLVHFMVRDAERHCAECLDACHRGVACPVFLGGRARRR
notes: also called σ^OrbS; BCAL1688
- Kd [2]: 83 nM
- koff [2]: 0.00045 s⁻¹
- kon [2]: 5400 M⁻¹ s⁻¹
